In patent publication US7879792 (REGENTS OF THE UNIVERSITY OF MICHIGAN, dated 2011):

What was measured:
human α-thrombin [1] = target: T1, human α-thrombin (human, UniProt P00734 328-622); test: cell-based or functional assay
human α-thrombin [2] = target: T1, human α-thrombin; test: inhibition of α-thrombin hydrolysis of Sar-Pro-Arg-paranitroanilide; Ki from Ki,app by the procedure of Bieth

Row | peptide concentration giving significant prolongation (p<0.05) of the APTT of normal human plasma (human α-thrombin [1]) [µM] | peptide concentration giving significant prolongation (p<0.05) of the PT of normal human plasma (human α-thrombin [1]) [µM] | peptide concentration giving significant prolongation (p<0.05) of the TCT of normal human plasma (human α-thrombin [1]) [µM] | Ki (human α-thrombin [2]) [µM] | Binder
1 | 12.5 | 6.25 | 0.78 | 7.3 | RXPAF (HELM PEPTIDE1{[dR].[O=C([C@@H]1C[C@@H]2CCCC[C@@H]2N1[*:1])[*:2]].P.[dA].[O=C([C@H](Cc1ccc(Br)cc1)N[*:1])[*:2]].[am]}$$$$V2.0; N-terminus assumed; SMILES C[C@@H](NC(=O)[C@@H]1CCCN1C(=O)[C@@H]1C[C@@H]2CCCC[C@@H]2N1C(=O)[C@H](N)CCCNC(=N)N)C(=O)N[C@@H](Cc1ccc(Br)cc1)C(N)=O) [rOicPaF(p-Br) (D-Arg-Oic-Pro-D-Ala-Phe(p-Br))]
2 | 25 | 6.25 | 0.78 | 6.4 | RXPAF (HELM PEPTIDE1{[dR].[O=C([C@@H]1C[C@@H]2CCCC[C@@H]2N1[*:1])[*:2]].P.[dA].[O=C([C@H](Cc1ccc(I)cc1)N[*:1])[*:2]].[am]}$$$$V2.0; N-terminus assumed; SMILES C[C@@H](NC(=O)[C@@H]1CCCN1C(=O)[C@@H]1C[C@@H]2CCCC[C@@H]2N1C(=O)[C@H](N)CCCNC(=N)N)C(=O)N[C@@H](Cc1ccc(I)cc1)C(N)=O) [rOicPaF(p-I) (D-Arg-Oic-Pro-D-Ala-Phe(p-I))]
3 | 1.56 | 1.56 | 0.78 | 6.6 | RXPAF (HELM PEPTIDE1{[dR].[O=C([C@@H]1C[C@@H]2CCCC[C@@H]2N1[*:1])[*:2]].P.[dA].[Cc1ccc(C[C@H](N[*:1])C(=O)[*:2])cc1].[am]}$$$$V2.0; SMILES Cc1ccc(C[C@H](NC(=O)[C@@H](C)NC(=O)[C@@H]2CCCN2C(=O)[C@@H]2C[C@@H]3CCCC[C@@H]3N2C(=O)[C@H](N)CCCNC(=N)N)C(N)=O)cc1, also called H-r-Oic-P-a-F(p-Me)-NH2) [rOicPaF(p-Me) (D-Arg-Oic-Pro-D-Ala-Phe(p-Me))]
4 | 3.13 | 1.56 | 0.39 | 6.7 | RXPSF (HELM PEPTIDE1{[dR].[O=C([C@@H]1C[C@@H]2CCCC[C@@H]2N1[*:1])[*:2]].P.[dS].[Cc1ccc(C[C@H](N[*:1])C(=O)[*:2])cc1].[am]}$$$$V2.0; N-terminus assumed; SMILES Cc1ccc(C[C@H](NC(=O)[C@@H](CO)NC(=O)[C@@H]2CCCN2C(=O)[C@@H]2C[C@@H]3CCCC[C@@H]3N2C(=O)[C@H](N)CCCNC(=N)N)C(N)=O)cc1) [rOicPsF(p-Me) (D-Arg-Oic-Pro-D-Ser-Phe(p-Me))]
